Reference: patent US8551951B2, “Pharmaceutical preparations and methods for inhibiting tumors” (Aenorasis SA Pharmaceuticals and Medical Devices, priority 2000, dated 2013)
Values joined by “and” are separate entries in the source; they are usually repeats but may differ in a detail not shown here. Identical values can stand only once.

Assays:
tumor cells = details: exogenous PSP94, in vivo and in vitro; cited from earlier work
[1] = test system: follicle-stimulating hormone (FSH); details: in-vitro and in-vivo in adult male rats; cited from earlier work
PC-3 cells [2] = assay: [^3H]-Thymidine uptake assay; format: cell-based, human; details: for ^3[H]-Thymidine Uptake (% of control): 72 hours
Protocol: The in vitro growth inhibition effect of rHuPSP94 was assessed using [^3H]-Thymidine uptake assay. [^3H]-Thymidine uptake assay involves [^3H]-Thymidine incorporation into cellular DNA of actively proliferating cells. It measures the proliferative index of the cells versus the MTS assay, which quantifies the number of lived cells following treatment. Cells were seeded in Costar 96 well cell culture flat bottom plates in RPMI supplemented media containing 50 μg/ml of bovine serum albumin (BSA) and 0.1 μM FeSO4. PC-3 cells were exposed to various concentrations of rHuPSP94 for 72 hours and during the final 16 hours of incubation cells were pulsed with 1 μCi of [^3H]-Thymidine. The radioactivity in each well of the plate is counted by a beta-counter and is expressed as total counts per minutes (cpm). Results of in vitro effect of rHuPSP94 on PC-3 cells using the ^3[H]-Thymidine uptake assay are summarized in Table 3 and are expressed as percentage of radioactivity measured for treated-cells relative to the radioactivity measured for non-treated cells (for which [^3H]-thymidine uptake value was set at 100%).
[^3H]-Thymidine uptake assay involves [^3H]-Thymidine incorporation into cellular DNA of actively proliferating cells. [^3H]-Thymidine uptake assay measures the proliferative index of the cells versus the MTS assay, which quantifies the number of lived cells following treatment. The anti-proliferative effects of PCK3145 and two other synthetic polypeptides derived from the amino and carboxy terminus ends of PSP94 (SEQ ID NO: 4 and NO: 6, respectively) as well as the decapeptide (SEQ ID NO: 3) previously shown to mimic the biological action of native PSP94 were assessed in [H3]-Thymidine uptake assay on PC-3 cells. Two separate experiments were conducted with GMP-grade PCK3145.

PC-3 cells [3] = assay: DNA fragmentation assay (DNA ladder, apoptosis); format: cell-based, human
Protocol: Cell apoptosis result in DNA fragmentation can be evaluated by the presence of a DNA ladder visualized when DNA is run on a 1.2% agarose gel. DNA ladder assay (apoptosis assay) was performed following exposure of PC-3 to various concentrations of the polypeptides for 72 hours. The polypeptides that were used in this particular experiment are polypeptide 7-21 (SEQ ID NO: 4), polypeptide PCK3145 (SEQ ID NO: 5) and polypeptide 76-94 (SEQ ID NO: 6). […] This effect was especially evident following treatment with PCK3145 (SEQ ID NO: 5), which is illustrated by FIG. 7. Lane 1 of the gel illustrated in FIG. 7 represents a lambda HindIII digest standard.
Apoptosis of PC-3 cells, following a 72 hours exposure to PCK3145 at 500 μg/ml concentration, was evaluated in supplemented media by DNA fragmentation assay. Doxorubicin was used as a reference positive control. Untreated cells and PCK3145-treated cells were harvested and the DNA was isolated. Isolated DNA was run on a 1.2% agarose gel containing Ethidium Bromide (EtBr). […] Lane 1 of the gel illustrated in FIG. 25 represents the DNA marker (100 base pair DNA ladder). Lane 2 of the gel illustrated in FIG. 25 represents a control of untreated PC-3 cells.

Mat Ly Lu (MLL) tumor [4] = assay: Study MLL-2, Mat Ly Lu tumor implanted in SCID mice; format: in vivo; details: 1 μg/kg/day s.c.; p=0.010
Protocol: (§1) Studies MLL-1 and MLL-2 were performed as follows; on day 0, male Copenhagen rats were injected subcutaneously with 5×10^5 Mat LyLu cells per rat. These cells were derived from cultures of Mat LyLu cell line grown in RPMI media containing 10% (v/v) of fetal calf serum in logarithmic phase of growth. Cells were harvested from the culture flasks by trypsinization, were centrifuged at 1200 rotation per minute (rpm) and washed three timed with Hanks balanced salt solution (HBSS). Following washing, cells were counted and adjusted to a concentration of 5×10^6 cells/ml in HBSS. A 0.1 ml volume of tumor cell inoculum containing 5×10^5 cells was administered subcutaneously into the flank region of each rat. Three days after tumor cell implantation (i.e., inoculation), animals were treated daily by a subcutaneous injection of the desired polypeptide until day 13.
Experiments illustrated in study MLL-2 show the anti-tumor efficacy validation of rHuPSP94 against Mat Ly Lu (MLL) tumor implanted in severe combined immunodeficiency (SCID) mice (Protocol based on S. Garde et al.; The Prostate, 22: 225-233, 1993).
For study MLL-2 (FIG. 13), tumor-implanted Scid mice were separated in different groups each receiving various amounts of rHuPSP94 or control reagents. The different groups used in these experiments are illustrated below. Each group contained 8 mice.

[5] = test system: PC-3 human prostate tumor; assay: PC-3 human prostate tumor in nude mice, subcutaneous treatment for 14 days (Examples 10 and 11); format: in vivo, Nude mouse; details: 1 μg/kg body weight per day s.c.
Protocol: PC-3 human prostate tumor was obtained from ATCC (ATCC 1435). PC-3 cells were grown in RPMI media containing 10% (v/v) of fetal calf serum and were harvested in the logarithmic phase of growth by trypsinization. Cells were centrifuged at 1200 rotation per minute (rpm) and washed three timed with Hanks balanced salt solution (HBSS). Following washing, cells were counted and adjusted to a concentration of 1×10^7 cells/ml in HBSS. A 0.1 ml volume of tumor cell inoculum containing 1×10^6 cells was administered subcutaneously into the two opposite flank region of each Nude mouse (Nu/Nu, BALE/c background). Tumor growth was monitored for approximately 18 days. Once tumor growth has been established (volume of tumor reached a volume of 50 mm^3) treatment with rHuPSP94 (SEQ ID NO: 2) was initiated and was performed once a day for 14 days by the subcutaneous route. Based on the assigned treatment groups illustrated in table 4.
PC-3 human prostate tumor (ATCC 1435) obtained from ATCC was implanted bilaterally into nude mice and tumor growth was monitored for approximately 18 days. PC-3 cells were injected once subcutaneously into each flank of the mice. Once tumor growth has been established (i.e., volume of tumor reached 0.25 to 0.50 cm^3) the treatment with decapeptide (SEQ ID NO: 3), native PSP94 (SEQ ID NO: 1) and control scrambled polypeptide PB111 was initiated and was performed once a day for 14 days by the subcutaneous route based on the treatment groups (randomly assigned) illustrated in table 5.

Mat Ly Lu (MLL) tumor [6] = assay: Study MLL-1, Mat LyLu tumor implanted in nude mice; format: in vivo; details: 1 μg/kg/day s.c.; p=0.042
Protocol: as §1
Experiments illustrated in FIG. 12 show the anti-tumor efficacy validation of rHuPSP94 against Mat LyLu (MLL) tumor implanted in nude mice (Protocol based on S. Garde et al.; The Prostate, 22: 225-233, 1993).
For study MLL-1 (FIG. 12), tumor-implanted nude mice were separated in different groups, each receiving various amount of rHuPSP94 or control reagents. The different groups used in these experiments are illustrated below. Each group contained 8 mice.

[7] = test system: human prostate cancer cells PC-3; assay: MTS assay, growth inhibitory effect on PC-3 cells; format: cell-based; details: for % Viability (control = 100%): 72 hours
From the text: Cell proliferation was monitored on PC-3 cells using the MTS/PMS (phenazine methosulfate) kit (Promega), which primarily measures mitochondrial activity of live cells. The basic principle of this method involves the fact that the mitochondrial enzymes of the live cells metabolize the MTS/PMS dyes forming a brown colored precipitate which can be measured as optical density (OD) by absorption at 490 nm in a spectrophotometer. Therefore, the OD values are proportional to the number of living cells. In addition, monitoring of cell morphology was also performed. Cell morphology would be indicative of their health status. For example, viable cells would appear adherent and spread out whereas dead cells would be in suspension in the media and would appear granular and round.
PC-3 cells (ATCC, Lot AT06) used in these experiments were at a passage number lower or equal to 70 (n≧70). Cells were seeded in Costar 96 well cell culture flat bottom plates in RPMI supplemented media containing 50 μg/ml of bovine serum albumin (BSA) and 0.1 μM FeSO4. Peptide was diluted in the same media. Cells were continuously exposed to the polypeptides of the present invention for 72 hours without changing media. Native PSP94 or rHuPSP94 concentrated two fold were directly added to wells and diluted to 1× in order to minimize cell manipulation and avoid detachment.
Native PSP94, rHuPSP94, polypeptide 22-36 and PB111 polypeptide (scrambled polypeptide) were also included in this experiment as controls. Cell proliferation assay was performed on either PC-3 cells or normal fibroblasts (used here as control) using the MTS/PMS kit (Promega). Four thousand cells (FIGS. 9 and 10) or three thousand (FIG. 11) cells were seeded in Costar 96 well cell culture flat bottom plates in RPMI supplemented media containing 50 μg/ml of bovine serum albumin (BSA) and 0.1 μM FeSO4. In addition, monitoring of cell morphology was also performed.
This assay measures the mitochondrial activity of the live cells. The basic principle of this method involves the fact that the mitochondrial enzymes of the live cells metabolize the MTS/PMS dyes forming a brown colored precipitate which can be measured as optical density (OD) by absorption at 490 nm in a spectrophotometer. Therefore, the OD values are proportional to the number of living cells.
In addition, a visual observation of the cells was also done to check the cell morphology, which could also be indicative of cell growth. The following conditions for MTS assay were used: PC-3 (ATCC, Lot AT06), passage number n≧70, cell line adapted to grow in serum-free OPTI-MEM and in RPMI supplemented with BSA (50 μg/ml) and Ferrous Sulfate (0.1 μM), continuous exposure for up to 72 hours without changing media (i.e., adding PCK3145 at 2× concentration directly to wells and diluting it 1:2 to 1× to minimize cell manipulation and avoid detachment).

B1: native PSP94: Prostate Secretory Protein of 94 amino acids, native human seminal plasma protein, SEQ ID NO: 1 (protein)
chain: SCYFIPNEGVPGDSTRKCMDLKGNKHPINSEWQTDNCETCTCYETEISCCTLVSTPVGYDKDNCQRIFKKEDCKYIVVEKKDPKKTCSVSEWII
Tumor cells
  effect on tumor cell growth: inhibitory effect
[1]
  secretion of circulating FSH: suppress secretion of
PC-3 cells [2]; 5 μg/ml
  ^3[H]-Thymidine Uptake (% of control): 97 % of control
PC-3 cells [2]; 10 μg/ml
  ^3[H]-Thymidine Uptake (% of control): 98 % of control
PC-3 cells [2]; 20 μg/ml
  ^3[H]-Thymidine Uptake (% of control): 100 % of control
PC-3 cells [2]; 40 μg/ml
  ^3[H]-Thymidine Uptake (% of control): 98 % of control
PC-3 cells [2]; 80 μg/ml
  ^3[H]-Thymidine Uptake (% of control): 77 % of control
PC-3 cells [2]; 72 hours exposure (FIG. 24)
  reduction in the [H3]-Thymidine uptake: ~50%
PC-3 cells [3]; 20 μg
  DNA laddering effect (FIG. 7 lane 4): DNA laddering effect
PC-3 cells [3]; 40 μg
  DNA laddering effect (FIG. 7 lane 3): DNA laddering effect

B2: rHuPSP94: recombinant human PSP94 expressed in yeast (Pichia pastoris), non-glycosylated, 10 cysteine residues, SEQ ID NO: 2 (protein)
chain: EAEAYVEFSCYFIPNEGVPGDSTRKCMDLKGNKHPINSEWQTDNCETCTCYETEISCCTLVSTPVGYDKDNCQRIFKKEDCKYIVVEKKDPKKTCSVSEWII
modifications: recombinant human PSP94 (rHuPSP94) produced from yeast
Mat Ly Lu (MLL) tumor [4]
  tumor weight reduction: 65%
PC-3 cells [2]; 5 μg/ml
  ^3[H]-Thymidine Uptake (% of control): 94 % of control
PC-3 cells [2]; 10 μg/ml
  ^3[H]-Thymidine Uptake (% of control): 101 % of control
PC-3 cells [2]; 20 μg/ml
  ^3[H]-Thymidine Uptake (% of control): 98 % of control
PC-3 cells [2]; 40 μg/ml
  ^3[H]-Thymidine Uptake (% of control): 79 % of control
PC-3 cells [2]; 80 μg/ml for 72 hrs, compared to non-treated control
  reduction in the percentage of cells incorporating [^3H]-thymidine: 65%
PC-3 cells [2]; 80 μg/ml
  ^3[H]-Thymidine Uptake (% of control): 35 % of control
[5]
  tumor growth (tumor volume): tumor growth reduction
  tumor growth reduction compared with Doxorubicin (5 mg/kg/day): reduction was similar to that observed for Doxorubicin
Mat Ly Lu (MLL) tumor [6]
  tumor weight reduction: 26%
[7]; 5 μg/ml
  % Viability (control = 100%): 98% and 92% and 89%
[7]; 10 μg/ml
  % Viability (control = 100%): 84% and 95% and 69%
[7]; 20 μg/ml
  % Viability (control = 100%): 78% and 80% and 79%
[7]; 40 μg/ml
  % Viability (control = 100%): 100% and 70% and 71% and 68% and 72% and 63% and 95%
[7]; 60 μg/ml
  % Viability (control = 100%): 98% and 78% and 63% and 85% and 52%
[7]; 80 μg/ml
  reduction in cell numbers (i.e., viability): 37% and 35%
  % Viability (control = 100%): 90% and 55% and 59% and 58% and 63% and 78% and 62%
[7]; 120 μg/ml
  reduction in cell numbers (i.e., viability): 57%
  % Viability (control = 100%): 52% and 43% and 68% and 60%
